Reference: patent US20190202900A1 (INFLARX, published 2019)

Target: T1, human endogenous C5a (eC5a) generated in human zymosan-activated plasma (human, UniProt P01031 678-751)
T1 sequence: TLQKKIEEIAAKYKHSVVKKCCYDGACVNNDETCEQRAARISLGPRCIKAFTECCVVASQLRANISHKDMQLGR
Test: cell-based or functional assay

B1: IFX-1 (antibody, IgG4, V domains shown)
VH: QVQLQQSGPQLVRPGTSVKISCKASGYSFTTFWMDWVKQRPGQGLEWIGRIDPSDSESRLDQRFKDRATLTVDKSSSTVYMQLSSPTSEDSAVYYCARGNDGYYGFAYWGQGTLVTVSS
VL: DIVLTQSPASLAVSLGQRATISCKASQSVDYDGDSYMKWYQQKPGQPPKLLIYAASNLQSGIPARFSGSGSGTDFTLNIHPVEEEDAATYYCQQSNEDPYTFGGGTKLEIK
- blocking of eC5a-induced CD11b up-regulation on human granulocytes (ZAP-CD11b assay), Ab:Ag ratios 1:1 and 2:1: ≤ 98%
- decrease of CD11b expression on human granulocytes (ZAP-CD11b assay, flow cytometry MFI), Ab:Ag molar ratio 0.5:1: > 80%
